Target: tbxt_mouse Tbxt (UniProt P20293)
Sequence (P20293 whole entry): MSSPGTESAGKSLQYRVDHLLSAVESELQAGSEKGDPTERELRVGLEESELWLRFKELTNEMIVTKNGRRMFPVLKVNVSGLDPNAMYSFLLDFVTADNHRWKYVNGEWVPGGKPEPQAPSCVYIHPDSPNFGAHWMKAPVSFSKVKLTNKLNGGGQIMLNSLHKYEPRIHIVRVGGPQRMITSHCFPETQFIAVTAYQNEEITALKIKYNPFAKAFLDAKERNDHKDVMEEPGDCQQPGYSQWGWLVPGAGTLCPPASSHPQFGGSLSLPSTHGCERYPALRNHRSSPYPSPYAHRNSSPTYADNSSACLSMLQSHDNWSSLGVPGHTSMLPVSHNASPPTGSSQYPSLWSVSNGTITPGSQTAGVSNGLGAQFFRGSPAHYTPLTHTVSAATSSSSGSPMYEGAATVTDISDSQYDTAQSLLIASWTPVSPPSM

Sequence of Homeobox protein MIXL1 (Mus musculus), Q9WUI0 R143I (Q9WUI0 whole entry R143I): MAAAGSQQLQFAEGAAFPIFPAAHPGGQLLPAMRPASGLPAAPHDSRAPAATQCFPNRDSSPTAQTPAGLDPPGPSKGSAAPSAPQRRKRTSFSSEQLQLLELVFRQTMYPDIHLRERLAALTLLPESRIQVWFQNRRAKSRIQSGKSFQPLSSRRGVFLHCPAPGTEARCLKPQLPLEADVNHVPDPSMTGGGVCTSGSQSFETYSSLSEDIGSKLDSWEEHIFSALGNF
Sequence of Homeobox protein MIXL1 (Mus musculus), Q9WUI0 P126I (Q9WUI0 whole entry P126I): as the sequence (Q9WUI0 whole entry R143I) above, with P126I, I143R counted along it
Sequence of Homeobox protein MIXL1 (Mus musculus), Q9WUI0 I113R (Q9WUI0 whole entry I113R): as the sequence (Q9WUI0 whole entry R143I) above, with I113R, I143R counted along it
Sequence of Homeobox protein MIXL1 (Mus musculus), Q9WUI0 V132A (Q9WUI0 whole entry V132A): as the sequence (Q9WUI0 whole entry R143I) above, with V132A, I143R counted along it

effect of a mutation on the interaction | Substance
with no effect | Homeobox protein MIXL1 (Mus musculus), Q9WUI0 R143I
decreasing interaction strength | Homeobox protein MIXL1 (Mus musculus), Q9WUI0 P126I
with no effect | Homeobox protein MIXL1 (Mus musculus), Q9WUI0 V132A
with no effect | Homeobox protein MIXL1 (Mus musculus), Q9WUI0 I113R

Reference: IntAct's records for PubMed 22164283
